Consider twelve molecules from patent publication US20240101645A1 (HENRY M JACKSON FOUNDATION FOR THE ADVANCEMENT OF MILITARY …, published 2024).

T1: HCoV-HKU1 spike antigens (bead panel) (HCoV-HKU1, UniProt Q5MQD0 13-1300)
T1 sequence: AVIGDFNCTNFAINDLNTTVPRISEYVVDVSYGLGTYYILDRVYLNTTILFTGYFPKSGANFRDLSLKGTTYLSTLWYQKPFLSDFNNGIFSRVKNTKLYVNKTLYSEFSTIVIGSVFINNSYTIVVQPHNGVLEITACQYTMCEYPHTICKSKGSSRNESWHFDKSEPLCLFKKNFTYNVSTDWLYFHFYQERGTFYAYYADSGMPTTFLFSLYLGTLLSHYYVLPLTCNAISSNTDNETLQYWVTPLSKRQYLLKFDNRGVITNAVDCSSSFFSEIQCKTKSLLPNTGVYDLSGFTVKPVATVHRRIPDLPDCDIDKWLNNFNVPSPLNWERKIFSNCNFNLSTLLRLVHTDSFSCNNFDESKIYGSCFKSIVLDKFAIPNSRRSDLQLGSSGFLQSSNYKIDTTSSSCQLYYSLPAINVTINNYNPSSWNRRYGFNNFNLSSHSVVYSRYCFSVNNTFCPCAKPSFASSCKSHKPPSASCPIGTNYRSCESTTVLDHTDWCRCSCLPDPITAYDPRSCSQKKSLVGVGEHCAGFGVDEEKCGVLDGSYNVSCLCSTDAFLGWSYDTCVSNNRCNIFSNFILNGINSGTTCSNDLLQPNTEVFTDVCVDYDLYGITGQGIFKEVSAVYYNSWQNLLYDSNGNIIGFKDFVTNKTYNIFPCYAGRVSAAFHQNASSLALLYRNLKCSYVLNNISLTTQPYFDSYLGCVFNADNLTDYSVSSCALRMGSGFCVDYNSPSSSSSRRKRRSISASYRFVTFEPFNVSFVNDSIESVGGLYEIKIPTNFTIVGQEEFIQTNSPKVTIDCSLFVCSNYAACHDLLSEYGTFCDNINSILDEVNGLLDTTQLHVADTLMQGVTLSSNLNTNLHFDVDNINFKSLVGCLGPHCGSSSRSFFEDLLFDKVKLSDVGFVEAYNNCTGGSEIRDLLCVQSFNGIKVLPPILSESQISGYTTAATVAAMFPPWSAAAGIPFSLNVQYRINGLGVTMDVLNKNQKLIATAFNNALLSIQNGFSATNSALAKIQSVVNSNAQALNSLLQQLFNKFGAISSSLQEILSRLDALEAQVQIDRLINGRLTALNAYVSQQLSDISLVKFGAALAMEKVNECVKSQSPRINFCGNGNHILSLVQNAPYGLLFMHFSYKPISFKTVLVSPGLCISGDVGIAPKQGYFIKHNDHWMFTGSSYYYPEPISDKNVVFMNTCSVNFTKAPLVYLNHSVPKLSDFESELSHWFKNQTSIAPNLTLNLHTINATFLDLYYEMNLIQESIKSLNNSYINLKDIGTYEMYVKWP

T2: HCoV-OC43 spike antigens (bead panel) (HCoV-OC43, UniProt P36334 14-1297)
T2 sequence: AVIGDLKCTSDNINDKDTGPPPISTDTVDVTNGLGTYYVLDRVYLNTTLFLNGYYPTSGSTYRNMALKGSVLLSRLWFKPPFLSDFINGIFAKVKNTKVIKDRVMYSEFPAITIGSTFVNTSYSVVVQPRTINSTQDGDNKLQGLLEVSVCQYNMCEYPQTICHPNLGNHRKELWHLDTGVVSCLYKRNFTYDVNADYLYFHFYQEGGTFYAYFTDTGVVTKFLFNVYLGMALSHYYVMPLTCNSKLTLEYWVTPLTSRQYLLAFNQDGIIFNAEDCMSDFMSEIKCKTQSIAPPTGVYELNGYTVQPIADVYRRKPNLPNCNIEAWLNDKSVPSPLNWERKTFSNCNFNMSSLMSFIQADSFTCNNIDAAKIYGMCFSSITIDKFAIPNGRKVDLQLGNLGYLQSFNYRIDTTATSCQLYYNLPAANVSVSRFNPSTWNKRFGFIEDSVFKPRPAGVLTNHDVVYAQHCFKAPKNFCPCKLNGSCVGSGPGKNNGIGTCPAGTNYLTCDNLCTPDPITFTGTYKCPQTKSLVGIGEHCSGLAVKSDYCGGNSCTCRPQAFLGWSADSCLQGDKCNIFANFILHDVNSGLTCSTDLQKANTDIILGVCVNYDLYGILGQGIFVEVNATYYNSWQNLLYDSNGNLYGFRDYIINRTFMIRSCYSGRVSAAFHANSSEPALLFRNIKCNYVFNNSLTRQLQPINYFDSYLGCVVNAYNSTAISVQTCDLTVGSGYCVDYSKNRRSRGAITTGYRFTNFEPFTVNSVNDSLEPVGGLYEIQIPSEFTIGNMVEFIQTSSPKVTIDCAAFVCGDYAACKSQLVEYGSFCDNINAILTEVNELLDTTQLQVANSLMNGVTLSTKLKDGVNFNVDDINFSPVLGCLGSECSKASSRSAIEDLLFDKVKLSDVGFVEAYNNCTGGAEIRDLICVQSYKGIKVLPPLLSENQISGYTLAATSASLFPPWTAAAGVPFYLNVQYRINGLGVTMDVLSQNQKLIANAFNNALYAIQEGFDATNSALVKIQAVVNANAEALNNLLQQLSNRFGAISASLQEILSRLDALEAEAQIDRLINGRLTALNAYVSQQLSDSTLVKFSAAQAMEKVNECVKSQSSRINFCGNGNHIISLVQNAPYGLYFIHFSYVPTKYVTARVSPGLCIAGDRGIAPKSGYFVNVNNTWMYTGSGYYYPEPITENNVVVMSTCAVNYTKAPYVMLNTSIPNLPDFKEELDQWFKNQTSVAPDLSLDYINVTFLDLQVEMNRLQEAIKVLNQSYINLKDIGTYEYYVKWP

B1: COV_2193 (antibody, V domains shown)
VH: QVQLVQSGAEVKKPGASVKVSCKVSGYTLTDLSMHWVRQTPGKGLEWMGGFDAEDGETIYAQNFQGRVTMTEDTSIDVAYMELSSLRSEDTAVYYCATGSVGPDYWGQGTLVTVSS
VL: SSELTQDPAVSVALGQTVRITCQGDSLRSYYASWFQQKPGQAPVLVIYLKNDRPSGIPDRFSGSSSGNTASLTITGAQAEDEADYYCNSRDSSGNHQVFGGGTKLTVL
notes: human IgG1
B2: COV_2028 (antibody, V domains shown)
VH: QVQLQESGPGLVKPSGTLSLTCVVSGGSISSSNWWSWVRQPPGKGLEWIGEIYHSGSTNYNPSLKSRVTISVDKSKNQFSLRLTSVTAADTAVYYCARGWNYDYWGQGTLVTVSS
VL: QSALTQPASVSGSPGQSITIACTGTSSDVGSYNLVSWYQQHPGKAPKLMIYEVSKRPSGLSNRFSGSKSGNTASLTISGLQAEDEADYYCYSYAGSSTWVFGGGTKLTVL
notes: human IgG1
B3: COV_2027 (antibody, V domains shown)
VH: EVQLVESGGGLIQPGGSLRLSCAASGFSVSTNYMSWVRQAPGKGLEWVSIIYSGGGTYYADSVKGRFTISRDTSENTLYLQMNSLRAEDTAVYYCASFLVGATGQPWYWGQGTLVTVSS
VL: not shown
notes: human IgG1
B4: COV_2054 (antibody, V domains shown)
VH: EVQLVESGGGVLQPGRSLRLSCAASGFTFNNYALHWVRQAPGKGLEWVAVISYDGSSKYYADSVRGRLTISRDNSRNTLYLQMNSLRPEDTAIYYCARDGDGLWLGESFYFDDWGQGTLVTVSS
VL: DIQMTQSPSTLSASVGDRVIITCRASQSISSWLAWYQQKPGKAPKLLIYEASTLQSGVPSRFSGSGSGTEFTLTISSLQPDDSATYYCQQYNSYPVHFSQGTKLEIK
notes: human IgG1
B5: COV_2103 (antibody, V domains shown)
VH: EVQLVESGGGVVQPGRSLRLSCGASGFTFSSYGIHWVRQAPGKGLDWVAVIWHDGSQKYYGDSVKGRFTISRDNSKNTLYLQMNRLRAEDTAVYYCARDSGDDYDSSGYPIGNAFDLWGQGTMVTVSS
VL: DIQMTQSPSTLSASVGDRVTITCRASQFINSWLAWYQQKPGKAPKLLIYKASSLETGVPSRFSGSGSGTEFTLTISSLQPDDFATYYCQQYNTYSFTFGPGTKVDIK
notes: human IgG1
B6: COV_2057 (antibody, V domains shown)
VH: EVQLVQSGAEVKKPGESLKISCKGSGYSFISYWIAWVRQMPGKGLEWMGIIYPGDSDTTYSPSFQGQVTISADKSISTAYLQWSSLKASDTAIYYCARLLYYSDSSPLDSWGQGTLVTVSS
VL: DIQMTQSPSSLSASVGDRVTITCRASQSISTYLNWYQQKPGKAPNLLIYAASSLQSGVPSRFSGSGSGTDFTLTISSLQPEDFATYYCQQSHSTPRTFGPGTKVDIK
notes: human IgG1
B7: COV_2134 (antibody, V domains shown)
VH: EVQLVESGGGVVQPGRSLRLSCAASGFIFSSYGMYWVRQAPGKGLEWVAVIWYDGSNKYYADSVKGRFTISRDNSKNTLYLQMNSLRAEDTAVYYCARDLSSSSGWDDYYYYYGMDVWGQGTTVTVSS
VL: not shown
notes: human IgG1
B8: COV_2196 (antibody, V domains shown)
VH: QVQLVQSGAEVKKPGASVKVSCKVSGYTLIELSMHWVRQAPGKGLEWMGGFDPEDAKTIYAQKFQGRVTMTEDTSTDTAYMELSSLTFEDTAVYYCATTPAFMAAAGDFDYWGQGTLVTVSS
VL: QPVLTQPSSVSVSPGQTATITCSGDVLAKKYARWFQQKPGQAPMLVIYKDTERPSGIPERFSGSSSGTTVTLTINGAQVEDEADYYCYSAAAWVFGGGTKLTVL
notes: human IgG1
B9: COV_2100 (antibody, V domains shown)
VH: EVQLVESGGGLVQPGGSLRLSCAASGFTFSSYDMYWVRQATGKGLEWVSAIGTAGDTYYPGSVKGRFTISRENAKNSLYLRMNSLRAGDTAVYFCARADKNTAMFFDYWGQGTLVTVSS
VL: DIQMTQSPSSLSASVGDRVTITCRASQNINNFLHWYQQKPGNAPKLLIYAASTLQSGVPSRFSGSGSGTDFTLTISSLQPEDFATYYCQQSYSTPGGTFGGGTKVEIK
notes: human IgG1
B10: COV_2123 (antibody, V domains shown)
VH: EVQLVESGGGVVQPGRSLRLSCAASGFTFSSYAMHWVRQAPGKGLEWVAVLSYDGSNKYNADSVKGRFTISRDNSKNTLYLQMNSLRVEDTAMYYCARDGVSVTMVRGVIGPLCDYWGQGTLVTVSS
VL: not shown
notes: human IgG1
B11: COV_2037 (antibody, V domains shown)
VH: QVQLVQSGAEVKKPGASVKVSCKVSGYTLTELSMHWVRQAPGKGLEWMGGFDPEDAETIYAQKFQGRVTMTEDTSTDTAYMELSSLRSEDTAVYYCATAGAITGTPTNYSYYYGMDFWGQGTTVTVSS
VL: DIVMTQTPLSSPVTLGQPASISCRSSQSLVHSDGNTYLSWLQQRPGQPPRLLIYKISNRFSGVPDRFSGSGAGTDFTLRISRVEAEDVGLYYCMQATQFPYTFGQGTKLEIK
notes: human IgG1
B12: COV_2025 (antibody, V domains shown)
VH: QVHLVQSGAEVKKPGASVKVSCKVSGYTLVELSVHWVRQAPAKGLEWIGGFDPEDGETIYAQKFQGRVTMTEDTSTDTAYMELTNLRSEDTAVYYCVTSQPFVSPNWFDPWGQGTLVTVSS
VL: QSALTQPASVSGSPGQSITISCTGTSRDVGAYNYVSWYQQHPGKAPKLMIYEVTTRPSGVSNRFSGSKSGNTASLTISGLQAEDEADYYCSSYTGSRTLVFGTGTKVTVL
notes: human IgG1

For one assay, the target named is T1, HCoV-HKU1 spike antigens (bead panel). As to the kind of experiment: multiplex bead assay.
In the case of B1, the binding result is “no binding”.

In the case of B2, the binding result was “no binding”.

For the molecule B3, the binding result was “no binding”.

Regarding B4, the binding result was “no binding”.

For the molecule B5, the binding result is reported as “no binding”.

As for B6, the binding result is on record as “no binding”.

For B7, the binding result is “no binding”.

B8: the binding result was “no binding”.

As for B9, the binding result is recorded as “no binding”.

For B10, the binding result is listed as “no binding”.

On to B11, for which the binding result is on record as “no binding”.

For B12, the binding result was “no binding”.

Another assay has as its target T2, HCoV-OC43 spike antigens (bead panel). As to the kind of experiment: multiplex bead assay.
With B1, the binding result is “no binding”.

On to B2, for which the binding result is “no binding”.

Regarding B3, the binding result is reported as “no binding”.

For B4, the binding result is “no binding”.

On to B5, for which the binding result is “no binding”.

For B6, the binding result is given as “no binding”.

Regarding B7, the binding result is listed as “no binding”.

For B8, the binding result is on record as “no binding”.

As to B9, the binding result is on record as “no binding”.

As to B10, the binding result is “no binding”.

B11: the binding result was “no binding”.

B12: the binding result is recorded as “no binding”.
